How the values were obtained:
[1] = target: the molecule itself; experiment: cross-linking; DSS cross-linking of gB-overexpressing cells, western blotting of the natural form of gB^23–431
[2] = target: T1, GST-NRP1^ABC (soluble extracellular ABC domain of NRP1) (human, UniProt O14786-1 30-862); experiment: ELISA; plates coated with 200 ng purified FLAG-gB^23–431, various concentrations of GST-NRP1 or GST-NRP2 for 2 h at RT, rabbit anti-GST and HRP-conjugated secondary antibody; apparent affinity constant; settings: both partners purified
T1 construct: neuropilin 1 residues 30-862 (extracellular ABC domain), amplified from pMSCV-NRP1, in pGEX-6p-1; also called pGEX-NRP1^ABC; pGEX-GST-NRP1^ABC; source: E. coli Rosetta, purified (Glutathione agarose)
T1 sequence: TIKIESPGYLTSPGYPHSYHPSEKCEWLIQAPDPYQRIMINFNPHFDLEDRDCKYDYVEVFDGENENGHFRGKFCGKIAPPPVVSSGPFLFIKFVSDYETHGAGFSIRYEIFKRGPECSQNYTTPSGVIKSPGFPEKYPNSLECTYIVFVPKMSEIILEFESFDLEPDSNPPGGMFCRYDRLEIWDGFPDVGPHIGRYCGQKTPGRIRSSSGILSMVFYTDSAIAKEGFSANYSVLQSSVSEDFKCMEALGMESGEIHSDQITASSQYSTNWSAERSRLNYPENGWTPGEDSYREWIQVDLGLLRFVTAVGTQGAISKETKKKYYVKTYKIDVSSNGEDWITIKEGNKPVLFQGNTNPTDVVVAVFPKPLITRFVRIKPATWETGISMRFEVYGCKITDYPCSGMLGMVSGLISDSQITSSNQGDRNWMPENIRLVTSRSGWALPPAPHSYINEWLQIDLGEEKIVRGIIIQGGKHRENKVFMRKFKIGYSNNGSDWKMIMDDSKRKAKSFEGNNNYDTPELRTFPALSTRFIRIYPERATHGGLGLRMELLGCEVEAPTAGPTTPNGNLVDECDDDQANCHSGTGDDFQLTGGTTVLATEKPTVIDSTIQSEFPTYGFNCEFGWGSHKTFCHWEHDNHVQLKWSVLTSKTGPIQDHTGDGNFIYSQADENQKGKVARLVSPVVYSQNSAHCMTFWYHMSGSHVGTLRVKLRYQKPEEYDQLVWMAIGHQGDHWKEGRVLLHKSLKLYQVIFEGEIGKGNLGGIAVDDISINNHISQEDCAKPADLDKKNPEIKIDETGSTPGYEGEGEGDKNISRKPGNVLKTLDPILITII

B1: FLAG-gB^23–431 (EBV glycoprotein B residues 23-431, CendR motif exposed) (domain or fragment)
chain: QTPEQPAPPATTVQPTATRQQTSFPFRVCELSSHGDLFRFSSDIQCPSFGTRENHTEGLLMVFKDNIIPYSFKVRSYTKIVTNILIYNGWYADSVTNRHEEKFSVDSYETDQMDTIYQCYNAVKMTKDGLTRVYVDRDGVNITVNLKPTGGLANGVRRYASQTELYDAPGWLIWTYRTRTTVNCLITDMMAKSNSPFDFFVTTTGQTVEMSPFYDGKNKETFHERADSFHVRTNYKIVDYDNRGTNPQGERRAFLDKGTYTLSWKLENRTAYCPLQHWQTFDSTIATETGKSIHFVTDEGTSSFVTNTTVGIELPDAFKCIEEQVNKTMHEKYEAVQDRYTKGQEAITYFITSGGLLLAWLPLTPRSLATVKNLTELTTPTSSPPSSPSPPAPSAARGSTPAAVLRRRR
notes: Epstein-Barr virus glycoprotein B (gB), residues 23-431, amplified from the gB expression plasmid p2670; ends with the CendR motif 428-431 (furin cleavage site); Secreted into the supernatant; the signal peptide of the vector is not described; also called EBV-gB^23–431; pCEP-his-FLAG-gB^23–431; source: HEK-293FT, transfected, in lysate (co-IP; M2 beads for the pull-down)
[1]
  stoichiometry N: 3
[2]
  binding result: binds

Reference: paper PMC4339892, “Neuropilin 1 is an entry factor that promotes EBV infection of nasopharyngeal epithelial cells” (Nature Communications, 2015)
